# Data reported in paper PMC2094072.
# How the values were obtained:
# Assay in all cases: fluorescence anisotropy
# [1] = biological target: BLM642-1290 R979/982A (UniProt P54132 642-1290, R979A;R982A)
# [2] = biological target: BLM642-1290 (UniProt P54132 642-1290)
# [3] = biological target: BLM642-1290 R959A (UniProt P54132 642-1290, R959A)
# [4] = biological target: BLM642-1290 H798A (UniProt P54132 642-1290, H798A)
# [5] = biological target: BLM642-1290 R979A (UniProt P54132 642-1290, R979A)
# [6] = biological target: BLM642-1290 Q975V (UniProt P54132 642-1290, Q975V)
# [7] = biological target: BLM642-1290 R982A (UniProt P54132 642-1290, R982A)
# Chain of BLM642-1290 R982A (P54132 642-1290 R982A): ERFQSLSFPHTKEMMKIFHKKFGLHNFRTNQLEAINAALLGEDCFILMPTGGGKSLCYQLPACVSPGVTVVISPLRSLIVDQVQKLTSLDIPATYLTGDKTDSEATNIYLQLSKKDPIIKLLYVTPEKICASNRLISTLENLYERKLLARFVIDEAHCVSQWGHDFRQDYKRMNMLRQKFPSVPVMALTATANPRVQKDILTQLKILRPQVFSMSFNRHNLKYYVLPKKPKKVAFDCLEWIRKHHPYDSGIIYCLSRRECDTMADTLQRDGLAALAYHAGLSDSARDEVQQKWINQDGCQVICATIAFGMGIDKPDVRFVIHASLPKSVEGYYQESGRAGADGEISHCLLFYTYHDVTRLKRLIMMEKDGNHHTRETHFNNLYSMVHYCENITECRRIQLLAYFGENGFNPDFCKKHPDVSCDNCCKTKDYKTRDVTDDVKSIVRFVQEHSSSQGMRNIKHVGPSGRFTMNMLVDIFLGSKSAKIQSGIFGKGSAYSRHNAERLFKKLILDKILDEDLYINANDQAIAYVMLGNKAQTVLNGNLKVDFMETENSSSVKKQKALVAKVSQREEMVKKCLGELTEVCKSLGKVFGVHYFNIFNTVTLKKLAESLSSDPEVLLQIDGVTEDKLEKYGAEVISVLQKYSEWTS
# Chain of BLM642-1290 H798A (P54132 642-1290 H798A): as the sequence (P54132 642-1290 R982A) above, with H157A, A341R counted along it
# Chain of BLM642-1290 Q975V (P54132 642-1290 Q975V): as the sequence (P54132 642-1290 R982A) above, with Q334V, A341R counted along it
# Chain of BLM642-1290 R979A (P54132 642-1290 R979A): as the sequence (P54132 642-1290 R982A) above, with R338A, A341R counted along it
# Chain of BLM642-1290 R959A (P54132 642-1290 R959A): as the sequence (P54132 642-1290 R982A) above, with R318A, A341R counted along it
# Chain of BLM642-1290 (P54132 642-1290): as the sequence (P54132 642-1290 R982A) above, with A341R counted along it
# Chain of BLM642-1290 R979/982A (P54132 642-1290 R979A/R982A): as the sequence (P54132 642-1290 R982A) above, with R338A counted along it
binder,measurement,setting,value
GGGTTAGGGTTAGGGTTAGGG (ssDNA) [oligonucleotide D (21-mer)],Kd,[1],1.32 ± 0.49 nM
same,Kd,[2],1.11 ± 0.11 nM
same,Kd,[3],4.15 ± 0.4 nM
same,Kd,[4],5.03 ± 0.55 nM
same,Kd,[5],1.91 ± 0.46 nM
same,Kd,[6],3.31 ± 0.4 nM
same,Kd,[7],2.13 ± 0.32 nM
